Assay results published in the nanobody polyreactivity screen of Harvey et al. (2022).

Test: yeast display, Sf9 membrane polyspecificity reagent, FACS + sequencing; frameworks hold sequencing errors
Procedure, shortened: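 Sorting gates, low and high (top ~1%), were placed on anti-HA fluorescence to track expression and on streptavidin fluorescence to track reagent binding. A clone's polyreactivity label is taken from the gate it came out of. The reagent was 10% biotinylated, detergent-solubilized Sf9 membrane, applied for 1 hour at 4 °C to galactose-induced yeast display cells.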

| Sequence | polyreactivity (PSR sort gate) |
| --- | --- |
| QVQLVESGGGLVQAGGSLRVSCAASGCTFVDYAMCWYRQAPGKERELVAGITSGGSTNYADSVKGRFTISRDNAKNTVYLQMNSVKPEDTAVYDCNADPGQDTPGYTRPEYDYWGQGTQVTVSS | low polyreactivity |
| QDQLVESGGGLVQAGGSLRLSCAASGIISYKNVMGWYRQAPGKERELDAAITSGGSTNYADSVKGRFTISRDNAKNTVYLQMNSLKPEDTAVYYCAARYYGSYGKQPRARYGYWGQGTQVTVSS | high polyreactivity |
| PVQLVESGGGLVQAGGSLRLSCAASGSTFRFYTMGWYRQAPGKERELVAAISGSGGSTYYADSVKGRFTISRDNAKNTVYLQMNSLIPEDPAVYFCAADKSRNASHRGYWGQGTQVTVSS | low polyreactivity |
| QLQLVESGGGLVQAGGSLRLSCAASGLILPYYAMGWYRQAPGKERALVAAISRTGGRTSYADSVKGRFTISRDNAKNTVYLQMNSLKPEDTAVYYCAARYGRYYGYNYWGQGTQVTVSS | high polyreactivity |
| QVQLVESGVGLVQARGSLRISCAASGFIFDLYAMGWYIQAHGKERELVAAITTSGGTTYYADSVKGRFTISRDNAKNTVYLQMNSLKPEDTAVYYCNALRRYVSVRPTKSDYWGQGTQVTVSS | high polyreactivity |
| QVQLVESGGGLVQAGGRLRLSCAASGRIFSKNAMGWYRQAPGKERELVAVISARGGNTYYADSVKGRFTISRDNAKNTVYLQMNSLKPEDTAVYYCNTPRPYEITTREYYYWGQGTQVTVSS | high polyreactivity |
| QVQLVESGGGLVQAGGSLRLSCAASGFTFPYYSMGWYRQAPGTERELVAPISYNGGSTYYADSVMGRFTISRDNAKNTVYLQMNSRNPEDTAVYYCNAVYSDSGVVGYYYWGQGTQVTVSS | high polyreactivity |
| QVQLVESGGGLVQAGGSLRLSCAASGSIFGRNAMGWSRQAPGTERELVARISSRGGSTYYADSVKGRFTISRDNAKNTVYLQMNSLKPEDTAVYYCNRDRTWQTNDYWGQGTQVTVSS | high polyreactivity |
| QVQLVESGGGLVQAGGSLRLSCAASGSTFQRYAMGWYRQAPGKERELVAAITWSGGSTKYADSVKGRFTISRDNAKNTVYLQMNSLKPEDTAVYYCAATPGRGGGYNYWGQGTQVTVSS | low polyreactivity |
| QVQLVESGGGLVQAGGSLRLSCAASGFIFGTYAMGWYRQAPGKERELVAAISVGGGSTYYADSVKGRFTISRDKAKNTVYLQMNSLKPEDTADYYCAAVQLYQKHQITYVAHEYWGQGTQVTVSS | low polyreactivity |
| QVQLVESGGGLVQAGGSLRLSCAASGFIFLRYAMGWYRQAPGKERELVAAISSSGGRTTYADSVKGRFTISRDNAKNTLYLQMNSLKPEDTAVYYCNADLWPGNHDGYWGQGTQVTVSS | low polyreactivity |
| QVQLEESAGGLVQAGGSLRLSCAASGRIFNYYAMGWYRQAPGKERELVATISSTGSSTYYADSVKGRFTISRDNAKNTVYLQMNSLKPEDTAVYYCAARYVRQYYRAEDYWGQGTQVTVSS | high polyreactivity |
| QVQLVESAGGLVQAGGSLRLSCAASGRIFPYNVIGWYRQAPGKERELVAAISSGGTTDYADSVKGRFTISRDNAKNTVYLQMNSLKPEDTAVYYCAATYVYWTWGYDYWGQGTQVTVSS | low polyreactivity |
| QVQLVESGGGLVQAGGSLRLSCADSGSTSYDYAMGWYRQAPGKERELVAAISGSSSTTYYADSVKGRFTISRDNAKNTVYLQMNSLKPEDTAVYYCNAVTTTGSGYGYWGQGTQVTVSS | low polyreactivity |
| QVQLVESGGGLVQAGGSLRLSCAASGSTFYLYDMGWYRQAPGKERELVATITSGTSTTYADSVKGRFTISRDNAKNTVYLQMISLKPEDTAVYYCNVYKPPTRGGVLEYGYWGQGTQVTVSS | low polyreactivity |
| QVQLVESGGGLVQAGGSLRLSCAASGSIFGYNTMGLYRKAPGKERELVAAISYRGGSTYADSVKGRFTISRDNAKNTVYLQMNSLKPVDTAVYYCDKRSIVGYRYSGYDYCGQGTQVTVSS | high polyreactivity |
| QVQLVESGGGLVQAGGSLRLSCAASGLILPDYAMGWYRQAPGKERELVAAISQRGGSTYYADSVKGRFTISRDNAKNSVYLQMYSLKPEDTAVYYCNALFRLRAYAEMDYWGQGTQVTVSS | high polyreactivity |
| QVQLVESGGGLVQAGGSLRLSCAASGFTFEYYAMGWYRQARGKERELVASITNSGTRTYYADSVKGRFTISRDNAKNTVYLQMNSLKPEDTAVYYCAATPWNGRYSRFGYWGQGTQVTVSS | high polyreactivity |
| QVHLVESGGGLVQAGVSLRLSCAAYVRIFGRNAMGWYRQAPGKEREFVAAITYSGTSTYYADSVKGRFTISRDNAKNTVYLQMNSLKREDTAVYYCNAQYLPSHVYGRYSSTFNYWGQGTQLTVSS | low polyreactivity |
| QVQLVESGGGLVQAGGSLRLSCAASGYIYPPYAMRWYRQAPGKERELVATITRIGGSTYYADSVKGRLTMSRDNAKNTVDLQMNSLKPEDTAVYYCAARRDCGPYLSPENPAPMDYWGQGTQVTVSS | low polyreactivity |
| QVPLVESGGGLVQAGGSLRLSCAASGSIFQLYAMGWYRQAPGKEREFVAAITRSGGRTYYADSVKGRFTISRDNAKNTVYIQMNSLKPEDTAVYYCAADWVRNVYYRGYDYWGQGPQVTVSS | high polyreactivity |
| QVQLVESGGGLVQAGGSLRLTCAASVSIFSVYARGWYRQAPGKERELVADINIGGASTYYADSVKGRFTISRDNAKNTVFLQMNSVIPEDTAVYSCAKEYYEGYFPTFDYDYWGQGTQVNVSS | low polyreactivity |

| Sequence | polyreactivity (PSR sort gate) |
| --- | --- |
| QVQLVESGGGLVQAGGSLRLSCAASGSIFGFNAMGWYRQAPGKERELVAAINGGGTTYYADSVKGRFTISRDNAKNTVYLQMNSLIPEDTAVYYCAATPNGYYYLGYDYWGQGTQVTVSS | low polyreactivity |
| QVQLVESGGGLVQEGGSLRLSCAASGSIFGGYVMGWYRQAPGKERELVAAITSGGSTYYADSVKGRFTISRDNAKNTVYLQMNSLKPEDTAVYYCAKDYGDWGQGTQVTVSS | low polyreactivity |
| QVQLVESGGGLVQAGGSLRLSCAASGITFRKYAMGWYRQAPGKERELVAGIRYSGSSTYYADSVKGRFTISRDNAKNTVYLQMNSLTPEDTAVYYCAVYGTTRYATTYDYWGQGTQVTVSS | high polyreactivity |
| QVQLVESVGGLVQAGGSLRLSCAASGRTFRYYTMGWYRQAPGKERELVASISWSGGSTYYADSVKGRFTISRDNAKNTVYLQMNSLKPEDTAVYYCNAVYGYRGVTNMDYWGQGTQVTVSS | high polyreactivity |
| QLQLVESGGGLVQAGGSLRLSCASSGSIFLFNAMGWYRQAAGQERELVAAITSSGTRTYYADSVKGRFTISRDNAKNTVYLQMNSLKPEDTAVYYCNAVGPVDSYHRYYYWGQGTQGTVSS | low polyreactivity |
| QVQLVESGGGLVQAGGSLRLSCAASGLIFRGYVMGWYRQAPGKERELVAAISRRGVNTYYADSVKGRFTISRDNAKNTFYLQMNSLKPEDTAVYYCNAYVHTQGGDYWGQGTQVTVSS | high polyreactivity |
| QVHLQESGGGLVQAGGSLRLSCAASGTITVLYKMGWFRQAPGKEREFVASINYGTSTYYADSVKGRFTVSRDSAKNTVYLQMNSLKPEDTAVYYCAAAYRWQDVYRYWGQGTQVTVSS | low polyreactivity |
| QDQLVESGGGLVQAGGSLRLSCAASGSIFGSYAMGWYRQAPGKEMELVAAISYSGASTYYADSVKGRFTISRDNAKNTVYLQMNSLKPEDTAVYYCNKDPRWRRFNYWGQGTQVTVSS | high polyreactivity |
| QVQLVESGGGLVQAGGSLRLSCAASGRTFYSNAMGWYRQPPGKERELVAAIRRSGGSTYYADSVKGRFTISRDNAKNTVYLQMNSLKPEDTAVYYCNAPHHRYDWGQGTQVTVSS | high polyreactivity |
| QVQLVESGGGLVQAGGSLRLSCAASGRTFSVYAMGWYRQAPGKERELVAAIRTSGGITYYADSVKGRFTISRDNAKNTVYLQMNSLKPEDTAVYYCAAETFRHYSYTRYYYWGQGTQVTVSS | high polyreactivity |
| QVQLVESGGGLVQAGCSLRLSCAASGLIFAVYTMGWYRQAPGKERELVAAITRRSTRTYYADSVKGRFTNSRDNAKNTVYLQMNSLKPEDTAVYYCAADRGSSGAAFEYWGQGTQVTVSS | low polyreactivity |
| QVQLVESGGGLVQAGGSLRLSCAASVRTFVVYAMGWYRQAPGKEREMVAVISFTGDSTFYADSVKGRFTISRDNAKNTVYLQMNSLKPEDTAVYYCNAGPYTYLHWNQAISRYYYWGQGTQVTVSS | low polyreactivity |
| QVQLVESGGGLVQAGGSLRLSCAASGRTFRFNAMGWYRPAPGKEREFVAAITSGGGTYYADSVKGRFTISRDNAKNTVYLQMNSLKPEDTAVYYCATVGIVHHRLVAMDYWGQGTQVTVSS | low polyreactivity |
| QVQLVESGGGLVQAGGSLRLSCAASGSTFTINAMGWYRQAPGKERELVAAISRSGGSTFYADSVKGRFTISRDNAKNTVYLQMNSLKPEDTAVYYCAAGYRGTAYRYGYCGQGTQVTVSS | high polyreactivity |
| QVQHVESVRGLVQAGGSLRLSCDASGIIFYSYAMGWYRQAPGKERELVARISTRGGSTYYADSVKGRFTISRDNAKNTVYLQMNSLKPEDTAVYYCAARYSRYIRFPYDYWGQGTQVTVSS | high polyreactivity |
| QVQLVESGGGIVQAGGSLRLSCAASGGTFQRNAMGWYIQAPGKEREFVATITRGGGSTYYADSVKGRFTISRDNAKNTVYFQMNSLKPEDSAVYYCNANTSYYQRYNYWGQGTQVTVSS | high polyreactivity |
| QVQLVESGGGLVQAGGSLRLSCAASGRTFPYYAMGWYRQAPGKERELVAAIRGTAGNTYYADSVKGRFTISRDNAKNTVYLQMNSLKPEDTAVYYCAKGRPYWSPLTGYNYWGQGTQVTVSS | low polyreactivity |
| QVQLVESGGGLVQAGGSLRLSCAASGRIFRAYTMGWYRQAPGKARELVAAISRSTGSTNYADSVKGRFTISRDNAKNTVYLQMNSLKPEDTAVYFCNARSRWYLVGQQSTRLDYWGQGTQVTVSS | high polyreactivity |
| QVQLVESGGGLVQAGGSLRLSCAASGFTFRNYAMGWYRQAPGKERELVAAISQSGGITYYADTVKGRFTISRDNAKNTVYLQMYSLKPEDTAVYYCAAERFPRSSKGYFRTYDYWGQGTQVTVSS | high polyreactivity |
| QVQLVESGGGLVQAGGSLRLSCAASGRIFFDYAMGWYRQAPGKERELVADISYNGGSTNYADSVKGRFTISRDNAKNTLYLQMNSLKPEDTADYYCNRAFVPVYDLDYYWGQGTQVTVSS | low polyreactivity |
| QVQLVESGGGLVQAGGSIRLSCAASGFIFKWYAMGWYRQAPGKERELVAVINRSGSTYYADSVKGRFTISRDNAKNTVYLQMNSLKPEDTAVYYCAAVQQYSSVYYYTYDYWGQGTQVTVSS | high polyreactivity |
